Assay results published in PMC8688474 (Nature Communications, 2021).

B1: neutralizing MAb 3C1 (antibody, V domains shown)
VH: EVQLQESGPSLVKPSQTLSLTCSVTGDSITNGYWNWIRKFPGNKLEYMGYISYSGSTYYSPSLKSRISITRDTSKNQHYLQLNSVTSEDTATYYCASDYHGSKYYFDYWGQGTTLTVSS
VL: DIVMTQSHKFMSTSVGHRVSITCKASQDVGNDVAWYQQKPGQSPKLLIYWASTRHTGVPDRFTGSGSGTDFTLTISNVQSEDLADYFCQQYNRYPYTFGGGTKLEIK
B2: neutralizing MAb 2H2 (antibody, V domains shown)
VH: QVQLKQSGPSLVQPSQSLSITCTVSGFSLTSYGVHWVRQSPGKGLEWLGVMWRGGNTDYNAAFMSRLSITKDNSKSQVFFKMNSLQTDDTAIYYCAKNGGAHAMDFWGQGTSVTVSS
VL: NIVLTQSPASLAVSLGQRATISCRASESVDSYGNSFLHWYQQKPGQPPKLLIYLASNLESGVPARFSGSGSRTDFTLTIDPVEADDAATYYCQQNNEDPFTFGSGTKLEIK

Biological target: T1, WT SARS-CoV-2 RBD protein (SARS-CoV-2, Wuhan-Hu-1 (WT), UniProt P0DTC2)
T1 construct: also called WT RBD
Experiment: ELISA
Details: both partners purified

| Binder | binding result |
| --- | --- |
| B1 | binds |
| B2 | binds |
